This is an account of results in publication PMC10906245, “Hydrogen–Deuterium Exchange Mass Spectrometry Identifies Local and Long-Distance Interactions within the Multicomponent Radical SAM Enzyme, PqqE” (ACS Central Science, 2024).

Assay [1] addresses PqqE in complex with PqqD (PqqDE) (Methylorubrum extorquens, UniProt P71517). Put plainly: HDX-MS, PqqDES versus PqqDE. As to conditions: no PqqA, no reductant, site at RS Fe4S4 cluster (peptide 21-32). Type of assay: binding.
Assay [2] concerns the target PqqD (Methylorubrum extorquens) (UniProt Q49148). Particulars: cited from earlier work.
In assay [3] the target is PqqE (Methylorubrum extorquens) (UniProt B7KXC6). As to conditions: cited from earlier work.
Chain of PqqE (Methylorubrum extorquens) (B7KXC6 whole entry): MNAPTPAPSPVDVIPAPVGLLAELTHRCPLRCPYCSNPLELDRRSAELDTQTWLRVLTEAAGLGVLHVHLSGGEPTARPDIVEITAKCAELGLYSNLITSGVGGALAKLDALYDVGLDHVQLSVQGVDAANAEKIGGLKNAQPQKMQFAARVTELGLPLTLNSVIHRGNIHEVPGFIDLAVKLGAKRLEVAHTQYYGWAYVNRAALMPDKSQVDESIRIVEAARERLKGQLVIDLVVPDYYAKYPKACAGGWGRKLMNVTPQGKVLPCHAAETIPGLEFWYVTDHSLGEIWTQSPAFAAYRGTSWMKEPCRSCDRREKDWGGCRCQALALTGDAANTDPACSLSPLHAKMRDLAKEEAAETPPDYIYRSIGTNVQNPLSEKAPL

Chain of PqqE in complex with PqqD (PqqDE) (Q49150 279-372): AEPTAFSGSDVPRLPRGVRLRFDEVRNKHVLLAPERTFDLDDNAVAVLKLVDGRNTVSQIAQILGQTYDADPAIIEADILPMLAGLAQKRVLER
Chain of PqqE in complex with PqqD (PqqDE) (P71517 whole entry): as the sequence (B7KXC6 whole entry) above, with S286A, Q293K counted along it
Chain of PqqD (Q49148 whole entry): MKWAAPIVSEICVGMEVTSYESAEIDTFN

For `C[S+](CC[C@H](N)C(=O)O)C[C@H]1O[C@@H](n2cnc3c(N)ncnc32)[C@H](O)[C@@H]1O` (stereo partly drawn) [SAM, S-adenosylmethionine], in assay [1], the “HDX-MS, PqqDES versus PqqDE” value was “When SAM was added to the PqqDE complex, we identified one type I peptide”.

Turning to PqqA (from UniProt Q49148), the Kd in assay [2] is 0.39 µM.

PqqD (from UniProt Q49148): the dissociation constant (Kd) in assay [3] was 4.5 µM.

The Kd is a measure of binding affinity in units of concentration.
